Biological target: T1, GST-Sirt1 (human, UniProt Q96EB6 1-747)
T1 sequence (looked up): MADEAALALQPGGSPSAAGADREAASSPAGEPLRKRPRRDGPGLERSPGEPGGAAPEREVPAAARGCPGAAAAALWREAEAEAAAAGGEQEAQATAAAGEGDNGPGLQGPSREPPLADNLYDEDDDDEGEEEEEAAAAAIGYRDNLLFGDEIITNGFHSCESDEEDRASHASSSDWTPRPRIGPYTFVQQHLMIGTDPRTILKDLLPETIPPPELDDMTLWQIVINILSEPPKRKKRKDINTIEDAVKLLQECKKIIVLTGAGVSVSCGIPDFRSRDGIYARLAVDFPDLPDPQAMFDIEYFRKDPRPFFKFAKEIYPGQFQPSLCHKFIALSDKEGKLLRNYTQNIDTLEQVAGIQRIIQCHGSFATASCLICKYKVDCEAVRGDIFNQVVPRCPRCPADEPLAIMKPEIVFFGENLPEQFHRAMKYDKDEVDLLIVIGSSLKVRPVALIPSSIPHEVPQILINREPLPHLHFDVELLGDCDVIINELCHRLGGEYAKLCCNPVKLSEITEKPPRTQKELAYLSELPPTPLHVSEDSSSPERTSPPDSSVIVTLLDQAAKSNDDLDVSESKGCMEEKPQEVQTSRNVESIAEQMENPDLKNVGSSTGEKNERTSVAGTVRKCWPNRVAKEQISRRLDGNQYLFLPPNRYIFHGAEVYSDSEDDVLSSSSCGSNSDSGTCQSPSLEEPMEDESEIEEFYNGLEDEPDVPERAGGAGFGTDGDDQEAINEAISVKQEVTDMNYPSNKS
Test: pull-down

- binding result: binds
B1: MBP-CHCHD2-His (CHCHD2-isoform2) (natural protein, human, UniProt Q9Y6H1 1-151, looked up)
chain: MPRGSRSRTSRMAPPASRAPQMRAAPRPAPVAQPPAAAPPSAVGSSAAAPRQPGLMAQMATTAAGVAVGSAVGHTLGHAITGGFSGGSNAEPARPDITYQEPQGTQPAQQQQPCLYEIKQFLECAQNQGDIKLCEGFNEVLKQCRLANGLA
